This data set deals with ATP. Briefly: switch fluorescence ratio, 500 uM ATP over buffer (Cy3 cluster intensity, sum of 5 cycles each) (fold (ratio)); higher = stronger signal-on switching upon ATP binding; sequences stand for … in TCGTCGGCAGCGTCAGATGTGTATAAGAGACAGTTTTTTTTTTTTTTTTTTTTTTTTT…TC. The conditions noted are these: aptamer strand: ATP DNA aptamer (quencher-CACCTGGGGGAGTATTGCGGAGGAAGG + anchor), 100 nM annealed; ATP concentration: 500 uM. The procedure, abridged: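 Values give the fluorescence ratio for each switch-domain sequence, averaged from per-cluster ratios of summed target-cycle to summed buffer-cycle Cy3 intensity. The Cy3-labelled switching-strand clusters sat on a modified Illumina MiSeq flow-cell, were annealed to 100 nM quencher-labelled ATP aptamer, and were imaged in selection buffer, then after 15 min with 500 uM ATP at 22 °C. Five cycles ran with NaOH stripping and re-annealing between them, and clusters outside 100-1000 RFU were excluded.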

The values that follow come from the supplement of paper PMC10126150.

± gives the standard deviation of the averaged measurements.
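Note: ATP exposure 15 min at 22 °C before imaging.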

As for TTATTTGTCG, the switch fluorescence ratio was found to be 1.01 ± 0.019. For TTATTTTAGG the value was 0.988 ± 0.044; for TTATTTTCTG, 1 ± 0.014; for TTATTTTGTG, 0.987 ± 0.035. The value for TTATTTTGTT was 0.982 ± 0.034. The value for TTATTTTTTA was 0.993 ± 0.028; that for TTCAAATCGT was 0.991 ± 0.013; that for TTCAACTGGG was 1.104 ± 0.0025.

As for TTCAAGCGCT, the switch fluorescence ratio was determined as 0.967 ± 0.019. The value for TTCAAGCTGA was 1.09 ± 0.069; that for TTCAAGGCAG was 1.03 ± 0.043. The value for TTCAAGTAGT was 0.997 ± 0.02; that for TTCAAGTGTT was 0.987 ± 0.029; that for TTCAATAGGG was 1.02 ± 0.036. The value for TTCAATATAG was 1.21 ± 0.29. As to TTCAATGTCA, the switch fluorescence ratio is 0.99 ± 0.043.

Take TTCAATTGTG: the switch fluorescence ratio came out at 0.9958 ± 0.0053.

Consider TTCACGGGGG, for which the switch fluorescence ratio was determined as 1.018 ± 0.0078.

TTCACGGTTC: the switch fluorescence ratio is 1.02 ± 0.027.

For TTCACTAGGT, the switch fluorescence ratio stood at 1.01 ± 0.039.

On to TTCACTCCGG, for which the switch fluorescence ratio is 1.2 ± 0.071.

For the sequence TTCAGAGTTG, the switch fluorescence ratio turned out to be 0.985 ± 0.095. The value for TTCAGATAGA was 0.9875 ± 0.0037; that for TTCAGATCCG was 0.967 ± 0.0076. The value for TTCAGATGAA was 0.9987 ± 0.0015; that for TTCAGATTAC was 1.04 ± 0.024; that for TTCAGGAATG was 1.01 ± 0.049.

For the sequence TTCAGGCGGT, the switch fluorescence ratio was 0.992 ± 0.025.

Consider TTCAGGGGTG, for which the switch fluorescence ratio is 1.1 ± 0.033. For TTCAGGGTAC the value was 0.987 ± 0.039; for TTCAGTAAGA, 1 ± 0.04; for TTCAGTAGAT, 0.951 ± 0.032. The value for TTCAGTATTT was 1.08 ± 0.09.

Regarding TTCAGTGGGG, the switch fluorescence ratio is 0.991 ± 0.039. For TTCAGTGGGT the value was 0.9787 ± 0.009; for TTCAGTTTTT, 1 ± 0.026; for TTCATAACTT, 0.99 ± 0.018. The value for TTCATAATA was 1.024 ± 0.0029; that for TTCATAGGCT was 1.03 ± 0.025. The value for TTCATATGTT was 0.981 ± 0.012; that for TTCATCATAG was 1.05 ± 0.029; that for TTCATCATGT was 1.02 ± 0.023.

As to TTCATCGGGA, the switch fluorescence ratio came out at 0.981 ± 0.055.

Take TTCATCGTTT: the switch fluorescence ratio was found to be 0.968 ± 0.011.

As for TTCATCTGTT, the switch fluorescence ratio is 0.9711 ± 0.0084. For TTCATGCATC the value was 1.83 ± 1.2. For TTCATGCTTT the value was 0.9882 ± 0.0097. In the case of TTCATGGGT, the switch fluorescence ratio stood at 1.017 ± 0.0054. For TTCATGTGTG the value was 1 ± 0.081. The value for TTCATGTTGT was 0.984 ± 0.027; that for TTCATTGGTA was 1.0186 ± 0.00056; that for TTCATTTCGT was 1 ± 0.024. For TTCATTTTGG, the switch fluorescence ratio is 1.05 ± 0.07.

Turning to TTCATTTTTG, the switch fluorescence ratio amounted to 0.998 ± 0.044. For TTCCAATGTG the value was 1.01 ± 0.029; for TTCCAATTTT, 1.03 ± 0.027; for TTCCACAGGA, 1.15 ± 0.15. With TTCCACGAAG, the switch fluorescence ratio came out at 0.996 ± 0.012.

Take TTCCAGTAGT: the switch fluorescence ratio stood at 1.01 ± 0.03. For TTCCATGGGA the value was 0.9894 ± 0.0098. For TTCCATTTTG the value was 0.992 ± 0.032. Regarding TTCCCCATGG, the switch fluorescence ratio came to 1.43 ± 0.6. For TTCCCCGGTG the value was 1.21 ± 0.24; for TTCCCGATGT, 1.02 ± 0.0059.

As to TTCCCGGCTG, the switch fluorescence ratio turned out to be 1.03 ± 0.016.

Consider TTCCCGTGCT, for which the switch fluorescence ratio stood at 1.022 ± 0.0076. For TTCCGAGGG the value was 1.102 ± 0.011; for TTCCGCGCAG, 1.18 ± 0.016. For the sequence TTCCGGCTAT, the switch fluorescence ratio was 1.15 ± 0.064.

As for TTCCGGGTG, the switch fluorescence ratio is 3.14 ± 0.75. For TTCCGGGTGA the value was 1.23 ± 0.31; for TTCCGGGTTG, 1.34 ± 0.35; for TTCCGTCTAT, 1.08 ± 0.086.

In the case of TTCCGTTGCG, the switch fluorescence ratio came to 1.16 ± 0.2. The value for TTCCGTTTGA was 1.24 ± 0.42; that for TTCCTAAAGT was 0.9622 ± 0.0039. The value for TTCCTATCGT was 1.046 ± 0.0022; that for TTCCTATTGA was 0.99 ± 0.049. The value for TTCCTATTTT was 1 ± 0.029. Take TTCCTCCCCC: the switch fluorescence ratio amounted to 1.94 ± 0.68. TTCCTCCCGT: the switch fluorescence ratio was determined as 2.01 ± 0.95. TTCCTGGCAT: the switch fluorescence ratio was determined as 1.45 ± 0.42. Turning to TTCCTGGCCT, the switch fluorescence ratio was 1.02 ± 0.033. The value for TTCCTGTGAT was 1.22 ± 0.27.

Turning to TTCCTGTGGG, the switch fluorescence ratio came out at 1.02 ± 0.061. The value for TTCCTTGGTG was 1.94 ± 0.89. For TTCCTTGGTT the value was 1.01 ± 0.012; for TTCCTTTAAA, 1.07 ± 0.065. The value for TTCGAACGGG was 1.01 ± 0.016; that for TTCGACTCCT was 1.09 ± 0.087; that for TTCGAGCTTC was 1.07 ± 0.034. With TTCGAGGAAT, the switch fluorescence ratio turned out to be 1.08 ± 0.099.

TTCGAGGGTA: the switch fluorescence ratio was 0.974 ± 0.036. With TTCGAGTAGT, the switch fluorescence ratio was 0.998 ± 0.03. As for TTCGAGTCCG, the switch fluorescence ratio came to 1.03 ± 0.06. The value for TTCGAGTGTC was 1.05 ± 0.034; that for TTCGAGTTTG was 0.9843 ± 0.0032; that for TTCGATAGTT was 1.89 ± 1.2. The value for TTCGATTTAT was 1.03 ± 0.024. The value for TTCGCACCGG was 1.021 ± 0.0073. For TTCGCAGGGT, the switch fluorescence ratio came to 1.039 ± 0.0029. For TTCGCAGGTT, the switch fluorescence ratio worked out at 1.05 ± 0.075. For TTCGCATAAT the value was 1.62 ± 0.3. For TTCGCATCTA the value was 1.15 ± 0.056; for TTCGCGAAAT, 1.027 ± 0.01; for TTCGCGGGGG, 0.979 ± 0.011. As for TTCGCGGTTA, the switch fluorescence ratio came out at 1 ± 0.03. For TTCGCTAGTG the value was 0.98 ± 0.033; for TTCGCTTAGG, 0.993 ± 0.026; for TTCGGAAAGA, 1.013 ± 0.0082. The value for TTCGGAATTA was 0.995 ± 0.0066. The value for TTCGGACTTC was 0.976 ± 0.064; that for TTCGGAGTT was 1.04 ± 0.017. With TTCGGAGTTT, the switch fluorescence ratio was 1.01 ± 0.12. The value for TTCGGCAATG was 1.39 ± 0.38; that for TTCGGCAGTA was 1 ± 0.025. For TTCGGCGAGA the value was 0.989 ± 0.021; for TTCGGCGGCA, 1.02 ± 0.036; for TTCGGCGGTA, 0.995 ± 0.011. For the sequence TTCGGGAGGA, the switch fluorescence ratio was determined as 0.971 ± 0.038.
